From patent US5618696A, “Human kunitz-type protease inhibitor and variants thereof” (Novo Nordisk A/S, priority 1992, dated 1997)
Values belong to the molecule of their own block, whether it stands above or below them. Where no end group is shown, it is not given here.

What was measured:
[1] = Net charge of the inhibitor; format: physicochemical
[2] = target: T1, bovine chymotrypsin (TLCK treated) (Bos taurus, UniProt P00766); experiment: Inhibition of chymotrypsin by HKIB9 variants; format: biochemical; conditions: at 1 μM
T1 construct: purchased Sigma Chemical Co. (St. Louis, Mo., U.S.A.)
Description: (§1) Their concentration was determined from the absorbance at 214 nm using aprotinin as a standard. Porcine trypsin was obtained from Novo Nordisk A/S, bovine chymotrypsin (TLCK treated) was obtained from Sigma Chemical Co. (St. Louis, Mo., U.S.A.). Human neutrophil cathepsin G and elastase were purified from extracts of PMNs according to the method described by Baugh and Travis, Biochemistry 15, 1976, pp. 836-843.
(§2) Peptidyl nitroanilide substrates S2251 and S2586 were obtained from Kabi (Stockholm, Sweden). S7388 and M4765 were obtained from Sigma Chemical Co.
(§3) Serine proteinases were incubated with various concentrations of the variants for 30 minutes. Substrate was then added and residual proteinase activity was measured at 405 nm.

[3] = target: T2, Porcine trypsin (Sus scrofa, UniProt P00761); experiment: Inhibition of trypsin by HKIB9 variants; format: biochemical; conditions: at 1 μM
T2 construct: purchased Novo Nordisk A/S
Description: as §1, §2, §3

[4] = target: T3, Human neutrophil cathepsin G (Homo sapiens, UniProt P08311); experiment: Inhibition of cathepsin G by HKIB9 variants; format: biochemical; conditions: at 1 μM
T3 construct: Human neutrophil cathepsin G and elastase were purified from extracts of PMNs; from tissue; host or cells: human polymorphonuclear leukocytes (PMNs), method of Baugh and Travis
T3 sequence (P08311 21-255): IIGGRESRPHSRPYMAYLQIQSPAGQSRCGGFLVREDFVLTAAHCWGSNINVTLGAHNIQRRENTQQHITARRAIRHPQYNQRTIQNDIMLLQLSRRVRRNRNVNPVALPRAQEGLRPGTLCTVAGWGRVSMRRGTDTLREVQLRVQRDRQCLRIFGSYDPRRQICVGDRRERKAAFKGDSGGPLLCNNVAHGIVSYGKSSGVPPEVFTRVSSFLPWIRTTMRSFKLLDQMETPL
Description: as §1, §2, §3

[5] = target: T4, granulocyte elastase (Homo sapiens, UniProt P08246); conditions: cited from earlier work
T4 sequence (P08246 30-267): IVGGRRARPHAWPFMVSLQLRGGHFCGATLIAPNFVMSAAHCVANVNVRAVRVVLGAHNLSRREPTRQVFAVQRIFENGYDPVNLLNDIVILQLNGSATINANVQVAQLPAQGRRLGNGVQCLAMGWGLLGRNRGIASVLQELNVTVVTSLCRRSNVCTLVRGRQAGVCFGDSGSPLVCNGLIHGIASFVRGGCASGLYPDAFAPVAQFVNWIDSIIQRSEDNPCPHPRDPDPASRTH

[6] = target: plasmakallikrein (Homo sapiens, UniProt P03952); conditions: cited from earlier work
[7] = high doses, including cardiopulmonary bypass operations; cited from earlier work
[8] = tested on: collagenase; conditions: cited from earlier work
[9] = target: bovine chymotrypsin (TLCK treated) (bovine) (UniProt P00766)
[10] = target: Human neutrophil elastase (human, UniProt P08246); experiment: enzyme inhibition: proteinase incubated with various concentrations of the variant for 30 min, residual activity on peptidyl nitroanilide substrate at 405 nm
Description: as §3

T2 sequence (P00761 9-231): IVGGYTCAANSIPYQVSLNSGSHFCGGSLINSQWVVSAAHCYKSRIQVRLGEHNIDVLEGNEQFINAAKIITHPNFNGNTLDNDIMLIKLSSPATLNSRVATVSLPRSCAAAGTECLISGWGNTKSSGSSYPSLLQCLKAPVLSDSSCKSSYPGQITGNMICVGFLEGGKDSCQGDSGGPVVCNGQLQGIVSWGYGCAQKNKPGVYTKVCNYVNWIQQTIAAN
plasmakallikrein, sequence (P03952 20-638, species assumed): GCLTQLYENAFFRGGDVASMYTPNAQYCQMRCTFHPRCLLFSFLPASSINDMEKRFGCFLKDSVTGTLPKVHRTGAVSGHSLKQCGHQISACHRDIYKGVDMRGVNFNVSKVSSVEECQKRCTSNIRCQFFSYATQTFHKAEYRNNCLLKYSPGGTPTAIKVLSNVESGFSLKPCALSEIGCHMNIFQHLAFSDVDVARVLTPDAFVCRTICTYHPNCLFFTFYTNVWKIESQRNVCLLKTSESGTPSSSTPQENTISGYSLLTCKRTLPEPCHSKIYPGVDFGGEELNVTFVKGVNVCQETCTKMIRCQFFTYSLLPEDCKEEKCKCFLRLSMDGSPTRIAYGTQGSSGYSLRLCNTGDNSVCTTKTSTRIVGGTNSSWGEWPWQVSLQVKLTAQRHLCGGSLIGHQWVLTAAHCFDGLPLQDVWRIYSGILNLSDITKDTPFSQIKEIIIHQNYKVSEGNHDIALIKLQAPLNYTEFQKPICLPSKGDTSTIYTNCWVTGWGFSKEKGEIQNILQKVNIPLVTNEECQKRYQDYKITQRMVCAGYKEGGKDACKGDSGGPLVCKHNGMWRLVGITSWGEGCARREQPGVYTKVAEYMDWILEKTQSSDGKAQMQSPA

Molecule: HKI B9: novel human Kunitz-type protease inhibitor domain, SEQ ID No. 1, produced from yeast strain KFN-1830 (DLLPNVCAFPMEKGPCQTYMTRWFFNFETGECELFAYGGCGGNSNNFLRKEKCEKFCKFT)
- net charge [1]: zero

- inhibition of chymotrypsin [2]: 5%
- inhibition of trypsin [3]: not to inhibit
- inhibition of cathepsin G [4]: not to inhibit
Molecule: [Q15V, T16A]-HKIB9 (DLLPNVCAFPMEKGPCVAYMTRWFFNFETGECELFAYGGCGGNSNNFLRKEKCEKFCKFT) [KFN 1930, HKIB9 Kunitz domain variant produced from yeast strain KFN-1930 (plasmid pKFN-1916)]

- inhibition of chymotrypsin [2]: 5%
- inhibition of trypsin [3]: not to inhibit
- inhibition of cathepsin G [4]: not to inhibit
Molecule: [Q15V, T16G]-HKIB9 (DLLPNVCAFPMEKGPCVGYMTRWFFNFETGECELFAYGGCGGNSNNFLRKEKCEKFCKFT) [KFN 1902, HKIB9 Kunitz domain variant produced from yeast strain KFN-1902 (plasmid pKFN-1892)]

Molecule: aprotinin (1-58, Ala15)
- effect on / selectivity for granulocyte elastase [5]: weak effect

Molecule: aprotinin (3-58, Arg15, Ala17, Ser42)
- plasmakallikrein inhibitory effect [6]: excellent

Molecule: aprotinin [reference compound]
- net charge [1]: strongly positive
- blood loss in connection with cardiac surgery [7]: significantly reduces blood loss

Molecule: aprotinin(1-58, Val15)
- effect on / selectivity for granulocyte elastase [5]: relatively high selectivity
- effect on collagenase [8]: inhibitory effect

- residual proteinase activity measured at 405 nm [9]: 5%
- Ki [10]: 140 nM
B1: [Q15V, T16G]-HKIB9 (other)
chain: DLLPNVCAFPMEKGPCVGYMTRWFFNFETGECELFAYGGCGGNSNNFLRKEKCEKFCKFT
modifications: ends and bridges not checked; cysteine pairing not given here

- residual proteinase activity measured at 405 nm [9]: 5%
- Ki [10]: 64 nM
B2: [Q15V, T16A]-HKIB9 (other)
chain: DLLPNVCAFPMEKGPCVAYMTRWFFNFETGECELFAYGGCGGNSNNFLRKEKCEKFCKFT
modifications: ends and bridges not checked; cysteine pairing not given here
